Test results taken from the supplement of paper PMC9112550, “Optimization of the antimicrobial peptide Bac7 by deep mutational scanning” (BMC Biology, 2022).

tested on: Escherichia coli TOP10; assay: shrunken log2 fold change of peptide-encoding DNA abundance (4.5 h post-induction vs induction); higher = less antimicrobial activity (less host growth inhibition); details: time post-induction: 4.5 h; library: site-saturation at positions 5, 18, 19, 20
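Also: peptides expressed intracellularly from a pBAD plasmid library in pooled LB shake-flask culture, induced with 0.3% L-arabinose, DNA abundance read by NGS, three biological replicates, DESeq2 with apeglm shrinkage.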

Row | Sequence | shrunken log2 fold change
1 | RRIRARPPRLPRPRPRPFTEPRP | -0.261
2 | RRIRARPPRLPRPRPRPFVVPRP | -0.312
3 | RRIRARPPRLPRPRPRPFWKPRP | -0.13
4 | RRIRARPPRLPRPRPRPFYVPRP | -0.383
5 | RRIRARPPRLPRPRPRPGAGPRP | 0.767
6 | RRIRARPPRLPRPRPRPGAMPRP | 0.959
7 | RRIRARPPRLPRPRPRPGDGPRP | 0.939
8 | RRIRARPPRLPRPRPRPGGRPRP | 0.525
9 | RRIRARPPRLPRPRPRPGHHPRP | 0.127
10 | RRIRARPPRLPRPRPRPGHWPRP | 0.628
11 | RRIRARPPRLPRPRPRPGKKPRP | -0.133
12 | RRIRARPPRLPRPRPRPGKNPRP | 0.124
13 | RRIRARPPRLPRPRPRPGKPPRP | 0.154
14 | RRIRARPPRLPRPRPRPGLAPRP | 1
15 | RRIRARPPRLPRPRPRPGLVPRP | 0.542
16 | RRIRARPPRLPRPRPRPGMMPRP | 0.207
17 | RRIRARPPRLPRPRPRPGNQPRP | -0.0242
18 | RRIRARPPRLPRPRPRPGPCPRP | 0.251
19 | RRIRARPPRLPRPRPRPGPHPRP | 0.568
20 | RRIRARPPRLPRPRPRPGPLPRP | 0.429
21 | RRIRARPPRLPRPRPRPGPYPRP | 1.85
22 | RRIRARPPRLPRPRPRPGRKPRP | 0.43

Row | Sequence | shrunken log2 fold change
23 | RRIRARPPRLPRPRPRPGVCPRP | 0.571
24 | RRIRARPPRLPRPRPRPGVEPRP | 0.118
25 | RRIRARPPRLPRPRPRPGVKPRP | 0.0545
26 | RRIRARPPRLPRPRPRPGWEPRP | 0.274
27 | RRIRARPPRLPRPRPRPGYDPRP | -0.0224
28 | RRIRARPPRLPRPRPRPGYSPRP | -0.35
29 | RRIRARPPRLPRPRPRPHCEPRP | -0.113
30 | RRIRARPPRLPRPRPRPHCLPRP | -0.116
31 | RRIRARPPRLPRPRPRPHDMPRP | 0.245
32 | RRIRARPPRLPRPRPRPHEIPRP | -0.107
33 | RRIRARPPRLPRPRPRPHFNPRP | 0.122
34 | RRIRARPPRLPRPRPRPHFSPRP | 0.0805
35 | RRIRARPPRLPRPRPRPHINPRP | -0.325
36 | RRIRARPPRLPRPRPRPHLFPRP | 0.117
37 | RRIRARPPRLPRPRPRPHLVPRP | 0.0104
38 | RRIRARPPRLPRPRPRPHMIPRP | 0.028
39 | RRIRARPPRLPRPRPRPHMVPRP | -0.069
40 | RRIRARPPRLPRPRPRPHNFPRP | -0.108
41 | RRIRARPPRLPRPRPRPHPQPRP | 0.45
42 | RRIRARPPRLPRPRPRPHPRPRP | 0.696
43 | RRIRARPPRLPRPRPRPHRQPRP | 0.29
44 | RRIRARPPRLPRPRPRPHSDPRP | 0.39

Row | Sequence | shrunken log2 fold change
45 | RRIRARPPRLPRPRPRPHTGPRP | -0.365
46 | RRIRARPPRLPRPRPRPHTSPRP | -0.218
47 | RRIRARPPRLPRPRPRPHVQPRP | 0.00547
48 | RRIRARPPRLPRPRPRPHWSPRP | -0.0356
49 | RRIRARPPRLPRPRPRPHYFPRP | 0.0061
50 | RRIRARPPRLPRPRPRPHYGPRP | 0.0153
51 | RRIRARPPRLPRPRPRPHYSPRP | 0.141
52 | RRIRARPPRLPRPRPRPHYYPRP | -0.146
53 | RRIRARPPRLPRPRPRPIADPRP | 0.394
54 | RRIRARPPRLPRPRPRPIAYPRP | 0.21
55 | RRIRARPPRLPRPRPRPICQPRP | 0.216
56 | RRIRARPPRLPRPRPRPICSPRP | 0.251
57 | RRIRARPPRLPRPRPRPIDEPRP | 0.379
58 | RRIRARPPRLPRPRPRPIDKPRP | 0.236
59 | RRIRARPPRLPRPRPRPIDQPRP | 0.444
60 | RRIRARPPRLPRPRPRPIDYPRP | -0.228
61 | RRIRARPPRLPRPRPRPIESPRP | 0.0614
62 | RRIRARPPRLPRPRPRPIFCPRP | 0.445
63 | RRIRARPPRLPRPRPRPIFQPRP | 0.116
64 | RRIRARPPRLPRPRPRPIHRPRP | -0.26
65 | RRIRARPPRLPRPRPRPIHWPRP | 0.0725
66 | RRIRARPPRLPRPRPRPIKAPRP | 0.105

Row | Sequence | shrunken log2 fold change
67 | RRIRARPPRLPRPRPRPIKPPRP | 0.0335
68 | RRIRARPPRLPRPRPRPIKVPRP | -0.104
69 | RRIRARPPRLPRPRPRPILAPRP | 0.147
70 | RRIRARPPRLPRPRPRPILFPRP | -0.166
71 | RRIRARPPRLPRPRPRPINAPRP | -0.256
72 | RRIRARPPRLPRPRPRPINCPRP | -0.0513
73 | RRIRARPPRLPRPRPRPINDPRP | 0.00287
74 | RRIRARPPRLPRPRPRPIPKPRP | 0.394
75 | RRIRARPPRLPRPRPRPIPVPRP | 0.161
76 | RRIRARPPRLPRPRPRPISHPRP | -0.131
77 | RRIRARPPRLPRPRPRPISYPRP | -0.545
78 | RRIRARPPRLPRPRPRPITFPRP | 0.051
79 | RRIRARPPRLPRPRPRPITLPRP | -0.13
80 | RRIRARPPRLPRPRPRPITYPRP | -0.0353
81 | RRIRARPPRLPRPRPRPIVEPRP | 0.207
82 | RRIRARPPRLPRPRPRPIWCPRP | 0.00499
83 | RRIRARPPRLPRPRPRPIYAPRP | 0.144
84 | RRIRARPPRLPRPRPRPKCDPRP | 0.39
85 | RRIRARPPRLPRPRPRPKDIPRP | -0.00725
86 | RRIRARPPRLPRPRPRPKDRPRP | 0.145
87 | RRIRARPPRLPRPRPRPKEAPRP | 0.516
88 | RRIRARPPRLPRPRPRPKEDPRP | 0.133

Row | Sequence | shrunken log2 fold change
89 | RRIRARPPRLPRPRPRPKEHPRP | 0.217
90 | RRIRARPPRLPRPRPRPKFCPRP | 0.22
91 | RRIRARPPRLPRPRPRPKFWPRP | 0.696
92 | RRIRARPPRLPRPRPRPKHTPRP | 0.264
93 | RRIRARPPRLPRPRPRPKIVPRP | -0.0715
94 | RRIRARPPRLPRPRPRPKKIPRP | 0.489
95 | RRIRARPPRLPRPRPRPKLKPRP | 0.272
96 | RRIRARPPRLPRPRPRPKPRPRP | 1.9
97 | RRIRARPPRLPRPRPRPKQCPRP | 0.123
98 | RRIRARPPRLPRPRPRPKQIPRP | 0.146
99 | RRIRARPPRLPRPRPRPKQYPRP | -0.0335
100 | RRIRARPPRLPRPRPRPKREPRP | 0.422
101 | RRIRARPPRLPRPRPRPKSGPRP | 0.166
102 | RRIRARPPRLPRPRPRPKSRPRP | 0.474
103 | RRIRARPPRLPRPRPRPKSWPRP | 0.89
104 | RRIRARPPRLPRPRPRPKWVPRP | 0.222
105 | RRIRARPPRLPRPRPRPKYYPRP | -0.179
106 | RRIRARPPRLPRPRPRPLATPRP | 0.647
107 | RRIRARPPRLPRPRPRPLCHPRP | 0.173
108 | RRIRARPPRLPRPRPRPLDAPRP | 0.746
109 | RRIRARPPRLPRPRPRPLDEPRP | 1.53
